Results taken from the supplement of paper PMC11246515.
± gives the standard deviation of the averaged measurements.

Test: total protein half-life in vivo (active degradation + dilution); higher = more stable protein
[1] = E. coli NCM3722 delta-clpP delta-lon delta-hslV, growth: N-lim chemostat, doubling time 6 h
[2] = E. coli NCM3722 delta-clpP, growth: N-lim chemostat, doubling time 6 h
[3] = E. coli NCM3722 delta-hslV, growth: N-lim chemostat, doubling time 6 h
[4] = E. coli NCM3722 delta-smpB, growth: N-lim chemostat, doubling time 6 h
[5] = wild type E. coli NCM3722, growth: C-lim chemostat, doubling time 3 h
[6] = wild type E. coli NCM3722, growth: C-lim chemostat, doubling time 6 h
[7] = wild type E. coli NCM3722, growth: C-lim chemostat, doubling time 12 h
[8] = wild type E. coli NCM3722, growth: N-lim chemostat, doubling time 6 h
[9] = wild type E. coli NCM3722, growth: N-lim chemostat, doubling time 12 h
[10] = wild type E. coli NCM3722, growth: P-lim chemostat, doubling time 6 h
[11] = wild type E. coli NCM3722, growth: P-lim chemostat, doubling time 12 h
[12] = E. coli NCM3722 delta-lon, growth: N-lim chemostat, doubling time 6 h

Sequence	total protein half-life in vivo [1]	total protein half-life in vivo [2]	total protein half-life in vivo [3]	total protein half-life in vivo [4]	total protein half-life in vivo [5]	total protein half-life in vivo [6]	total protein half-life in vivo [7]	total protein half-life in vivo [8]	total protein half-life in vivo [9]	total protein half-life in vivo [10]	total protein half-life in vivo [11]	total protein half-life in vivo [12]
MRWQGRRESDNVEDRRNSSGGPSMGGPGFRLPSGKGGLILLIVVLVAGYYGVDLTGLMTGQPVSQQQSTRSISPNEDEAAKFTSVILATTEDTWGQQFEKMGKTYQQPKLVMYRGMTRTGCGAGQSIMGPFYCPADGTVYIDLSFYDDMKDKLGADGDFAQGYVIAHEVGHHVQKLLGIEPKVRQLQQNATQAEVNRLSVRMELQADCFAGVWGHSMQQQGVLETGDLEEALNAAQAIGDDRLQQQSQGRVVPDSFTHGTSQQRYSWFKRGFDSGDPAQCNTFGKSI	5.3 ± 0.69 h	6.06 ± 0.32 h	5.36 ± 0.17 h	4.87 ± 0.34 h	2.861 ± 0.027 h	5.19 ± 0.22 h	7.6 ± 3 h	5.54 ± 0.5 h	11.2 ± 2 h	3.37 ± 0.57 h	8.39 ± 3.7 h	
MRYIVALTGGIGSGKSTVANAFADLGINVIDADIIARQVVEPGAPALHAIADHFGANMIAADGTLQRRALRERIFANPEEKNWLNALLHPLIQQETQHQIQQATSPYVLWVVPLLVENSLYKKANRVLVVDVSPETQLKRTMQRDDVTREHVEQILAAQATREARLAVADDVIDNNGAPDAIASDVARLHAHYLQLASQFVSQEKP [P0A6I9]	4.61 ± 0.82 h	4.08 ± 0.2 h	4.04 ± 0.14 h	4.78 ± 0.96 h	3.06 ± 0.28 h	4.83 ± 0.92 h	9.87 ± 0.29 h	4.18 ± 0.04 h	6.95 ± 0.2 h	5.34 ± 0.12 h	11.1 ± 0.22 h	4.32 ± 0.1 h
MRYPVDVYTGKIQAYPEGKPSAIAKIQVDGELMLTELGLEGDEQAEKKVHGGPDRALCHYPREHYLYWAREFPEQAELFVAPAFGENLSTDGLTESNVYMGDIFRWGEALIQVSQPRSPCYKLNYHFDISDIAQLMQNTGKVGWLYSVIAPGKVSADAPLELVSRVSDVTVQEAAAIAWHMPFDDDQYHRLLSAAGLSKSWTRTMQKRRLSGKIEDFSRRLWGK	4.688 ± 0.014 h	4.89 ± 0.61 h	4.614 ± 0.023 h	4.46 ± 0.23 h	3.04 ± 0.29 h	6.38 ± 1.3 h	9.06 ± 0.23 h	4.7 ± 0.19 h	7.96 ± 1.1 h	5.64 ± 0.12 h	12 ± 0.28 h	5.77 ± 0.072 h
MRYRIFLLFFFALLPTSLVWAAPAQRAFSDWQVTCNNQNFCVARNTGDHNGLVMTLSRSAGAHTDAVLRIERGGLKSPEASEGEIAPRLLLDGEPLALSGDKWRISPWLLVTDDTATITAFLQMIQEGKAITLRDGDQTISLSGLKAALLFIDAQQKRVGSETAWIKKGDEPPLSVPPAPALKEVAVVNPTPTPLSLEERNDLLDYGNWRMNGLRCSLDPLRREVNVTALTDDKALMMISCEAGAYNTIDLAWIVSRKKPLASRPVRLRLPFNNGQETNELELMNATFDEKSRELVTLAKGRGLSDCGIQARWRFDGQRFRLVRYAAEPTCDNWHGPDAWPTLWITR	4.79 ± 0.75 h	5.182 ± 0.02 h	6.05 ± 0.37 h	5.55 ± 0.54 h	3.44 ± 0.45 h	5.86 ± 1.1 h	10.4 ± 2 h	5.2 ± 0.56 h	12.9 ± 3.8 h	4.81 ± 0.49 h	9.92 ± 0.41 h	5.51 ± 0.2 h
MSAEHVLTMLNEHEVKFVDLRFTDTKGKEQHVTIPAHQVNAEFFEEGKMFDGSSIGGWKGINESDMVLMPDASTAVIDPFFADSTLIIRCDILEPGTLQGYDRDPRSIAKRAEDYLRSTGIADTVLFGPEPEFFLFDDIRFGSSISGSHVAIDDIEGAWNSSTQYEGGNKGHRPAVKGGYFPVPPVDSAQDIRSEMCLVMEQMGLVVEAHHHEVATAGQNEVATRFNTMTKKADEIQIYKYVVHNVAHRFGKTATFMPKPMFGDNGSGMHCHMSLSKNGVNLFAGDKYAGLSEQALYYIGGVIKHAKAINALANPTTNSYKRLVPGYEAPVMLAYSARNRSASIRIPVVSSPKARRIEVRFPDPAANPYLCFAALLMAGLDGIKNKIHPGEAMDKNLYDLPPEEAKEIPQVAGSLEEALNELDLDREFLKAGGVFTDEAIDAYIALRREEDDRVRMTPHPVEFELYYSV [P0A9C5]	5.3 ± 0.14 h	4.58 ± 0.32 h	4.63 ± 0.14 h	4.02 ± 0.12 h	3.39 ± 0.49 h	6.33 ± 0.86 h	11.5 ± 0.3 h	4.25 ± 0.046 h	7.49 ± 0.92 h	5.8 ± 0.092 h	12.1 ± 0.55 h	5.06 ± 0.33 h
MSAFKKSLLVAGVAMILSNNVFADEGHGIVKFKGEVISAPCSIKPGDEDLTVNLGEVADTVLKSDQKSLAEPFTIHLQDCMLSQGGTTYSKAKVTFTTANTMTGQSDLLKNTKETEIGGATGVGVRILDSQSGEVTLGTPVVITFNNTNSYQELNFKARMESPSKDATPGNVYAQADYKIAYE	5.72 h	5.47 h	5.25 h	3.96 ± 0.24 h	1.78 h							
MSAGRLNKKSLGIVMLLSVGLLLAGCSGSKSSDTGTYSGSVYTVKRGDTLYRISRTTGTSVKELARLNGISPPYTIEVGQKLKLGGAKSSSITRKSTAKSTTKTASVTPSSAVPKSSWPPVGQRCWLWPTTGKVIMPYSTADGGNKGIDISAPRGTPIYAAGAGKVVYVGNQLRGYGNLIMIKHSEDYITAYAHNDTMLVNNGQSVKAGQKIATMGSTDAASVRLHFQIRYRATAIDPLRYLPPQGSKPKC		6.06 ± 0.3 h	6.34 ± 0.85 h	5.693 ± 0.011 h	3.22 ± 0.21 h	5.4794 ± 0.0017 h	9.64 ± 0.25 h	5.64 ± 0.52 h	10.8 ± 0.38 h	6.32 ± 0.37 h	13.3 ± 0.95 h	6.04 ± 0.44 h
MSAKHPVIAVTGSSGAGTTTTSLAFRKIFAQLNLHAAEVEGDSFHRYTRPEMDMAIRKARDAGRHISYFGPEANDFGLLEQTFIEYGQSGKGKSRKYLHTYDEAVPWNQVPGTFTPWQPLPEPTDVLFYEGLHGGVVTPQHNVAQHVDLLVGVVPIVNLEWIQKLIRDTSERGHSREAVMDSVVRSMEDYINYITPQFSRTHLNFQRVPTVDTSNPFAAKGIPSLDESFVVIHFRNLEGIDFPWLLAMLQGSFISHINTLVVPGGKMGLAMELIMLPLVQRLMEGKKIE [P0AEX5]	5.45 ± 0.28 h	5.4 ± 0.23 h	4.95 ± 0.67 h	5.185 ± 0.032 h	2.96 ± 0.14 h	5.5 ± 0.22 h	11.8 ± 3.6 h	5.42 ± 0.28 h	10.9 ± 2.4 h	6.156 ± 0.01 h	12.4 ± 2.5 h	4.68 ± 1.1 h
